B1: Scaffold protein ILK (Homo sapiens), Q13418 (parent)
chain: MDDIFTQCREGNAVAVRLWLDNTENDLNQGDDHGFSPLHWACREGRSAVVEMLIMRGARINVMNRGDDTPLHLAASHGHRDIVQKLLQYKADINAVNEHGNVPLHYACFWGQDQVAEDLVANGALVSICNKYGEMPVDKAKAPLRELLRERAEKMGQNLNRIPYKDTFWKGTTRTRPRNGTLNKHSGIDFKQLNFLTKLNENHSGELWKGRWQGNDIVVKVLKVRDWSTRKSRDFNEECPRLRIFSHPNVLPVLGACQSPPAPHPTLITHWMPYGSLYNVLHEGTNFVVDQSQAVKFALDMARGMAFLHTLEPLIPRHALNSRSVMIDEDMTARISMADVKFSFQCPGRMYAPAWVAPEALQKKPEDTNRRSADMWSFAVLLWELVTREVPFADLSNMEIGMKVALEGLRPTIPPGISPHVCKLMKICMNEDPAKRPKFDMIVPILEKMQDK
partner: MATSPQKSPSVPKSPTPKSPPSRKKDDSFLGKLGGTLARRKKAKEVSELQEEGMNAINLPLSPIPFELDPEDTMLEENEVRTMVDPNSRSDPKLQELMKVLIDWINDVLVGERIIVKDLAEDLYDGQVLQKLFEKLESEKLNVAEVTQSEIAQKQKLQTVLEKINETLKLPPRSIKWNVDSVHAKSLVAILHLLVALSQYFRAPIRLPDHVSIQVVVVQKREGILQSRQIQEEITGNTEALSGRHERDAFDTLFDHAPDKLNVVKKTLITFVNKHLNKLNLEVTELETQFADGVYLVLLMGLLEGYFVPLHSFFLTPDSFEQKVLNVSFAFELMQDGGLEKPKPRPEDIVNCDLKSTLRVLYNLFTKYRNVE
B2: Cyclin-dependent kinase 4 inhibitor C (Homo sapiens), P42773 (parent)
chain: MAEPWGNELASAAARGDLEQLTSLLQNNVNVNAQNGFGRTALQVMKLGNPEIARRLLLRGANPDLKDRTGFAVIHDAARAGFLDTLQTLLEFQADVNIEDNEGNLPLHLAAKEGHLRVVEFLVKHTASNVGHRNHKGDTACDLARLYGRNEVVSLMQANGAGGATNLQ
B3: Emerin (Homo sapiens), P50402 (parent)
chain: MDNYADLSDTELTTLLRRYNIPHGPVVGSTRRLYEKKIFEYETQRRRLSPPSSSAASSYSFSDLNSTRGDADMYDLPKKEDALLYQSKGYNDDYYEESYFTTRTYGEPESAGPSRAVRQSVTSFPDADAFHHQVHDDDLLSSSEEECKDRERPMYGRDSAYQSITHYRPVSASRSSLDLSYYPTSSSTSFMSSSSSSSSWLTRRAIRPENRAPGAGLGQDRQVPLWGQLLLFLVFVIVLFFIYHFMQAEEGNPF
partner: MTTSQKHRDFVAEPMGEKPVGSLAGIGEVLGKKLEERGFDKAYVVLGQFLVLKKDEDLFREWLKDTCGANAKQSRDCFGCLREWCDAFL
B4: Mothers against decapentaplegic homolog 4 (Homo sapiens), Q13485 (parent)
chain: MDNMSITNTPTSNDACLSIVHSLMCHRQGGESETFAKRAIESLVKKLKEKKDELDSLITAITTNGAHPSKCVTIQRTLDGRLQVAGRKGFPHVIYARLWRWPDLHKNELKHVKYCQYAFDLKCDSVCVNPYHYERVVSPGIDLSGLTLQSNAPSSMMVKDEYVHDFEGQPSLSTEGHSIQTIQHPPSNRASTETYSTPALLAPSESNATSTANFPNIPVASTSQPASILGGSHSEGLLQIASGPQPGQQQNGFTGQPATYHHNSTTTWTGSRTAPYTPNLPHHQNGHLQHHPPMPPHPGHYWPVHNELAFQPPISNHPAPEYWCSIAYFEMDVQVGETFKVPSSCPIVTVDGYVDPSGGDRFCLGQLSNVHRTEAIERARLHIGKGVQLECKGEGDVWVRCLSDHAVFVQSYYLDREAGRAPGDAVHKIYPSAYIKVFDLRQCHRQMQQQAATAQAAAAAQAAAVAGNIPGPGSVGGIAPAISLSAAAGIGVDDLRRLCILRMSFVKGWGPDYPRQSIKETPCWIEIHLHRALQLLDEVLHTMPIADPQPLD
partner: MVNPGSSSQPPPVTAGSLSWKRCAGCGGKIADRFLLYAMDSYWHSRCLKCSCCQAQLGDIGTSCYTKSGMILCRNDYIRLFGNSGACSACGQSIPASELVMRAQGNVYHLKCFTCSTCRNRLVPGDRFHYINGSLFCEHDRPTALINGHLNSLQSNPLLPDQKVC
B5: Barrier-to-autointegration factor (Homo sapiens), O75531 (parent)
chain: B3 partner
partner: B3 chain
B6: ADP-ribosylation factor-like protein 2-binding protein (Homo sapiens), Q9Y2Y0 (parent)
chain: MDALEGESFALSFSSASDAEFDAVVGYLEDIIMDDEFQLLQRNFMDKYYLEFEDTEENKLIYTPIFNEYISLVEKYIEEQLLQRIPEFNMAAFTTTLQHHKDEVAGDIFDMLLTFTDFLAFKEMFLDYRAEKEGRGLDLSSGLVVTSLCKSSSLPASQNNLRH

Variants of: B1
Details: with parva_human PARVA

Variant	effect of a mutation on the interaction
A262V	with no effect

Variants of: B2
Details: with cdk6_human CDK6, Q00534
cdk6_human CDK6, Q00534, sequence (Q00534 whole entry): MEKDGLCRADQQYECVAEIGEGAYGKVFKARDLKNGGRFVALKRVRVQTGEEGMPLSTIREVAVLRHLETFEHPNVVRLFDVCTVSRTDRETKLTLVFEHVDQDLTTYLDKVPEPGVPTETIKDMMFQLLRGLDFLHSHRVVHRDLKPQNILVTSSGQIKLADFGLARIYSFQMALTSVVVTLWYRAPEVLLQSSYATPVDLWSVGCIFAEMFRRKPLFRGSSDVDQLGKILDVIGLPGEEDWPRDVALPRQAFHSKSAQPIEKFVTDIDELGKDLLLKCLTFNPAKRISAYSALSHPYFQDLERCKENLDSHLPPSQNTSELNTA

Variant	effect of a mutation on the interaction
V31L	with no effect

Variants of: B3
Details: with baf_human BANF1, O75531

Variant	effect of a mutation on the interaction
S54F	with no effect
P183T	with no effect
D72V	with no effect

Variants of: B4
Details: with lmo4_human LMO4, P61968

Variant	effect of a mutation on the interaction
Y353S	with no effect
R361C	with no effect
N13S	with no effect

Variants of: B5
Details: with emd_human EMD

Variant	effect of a mutation on the interaction
A12T	with no effect

Variants of: B6
Details: with arl2_human ARL2, P36404
arl2_human ARL2, P36404, sequence (P36404 whole entry): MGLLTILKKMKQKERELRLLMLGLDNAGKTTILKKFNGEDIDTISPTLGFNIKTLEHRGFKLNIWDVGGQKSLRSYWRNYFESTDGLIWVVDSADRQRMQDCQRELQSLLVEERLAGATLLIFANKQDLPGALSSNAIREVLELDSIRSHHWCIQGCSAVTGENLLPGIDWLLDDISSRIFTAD

Variant	effect of a mutation on the interaction
M45R	disrupting interaction strength

Reference: IntAct's records for PubMed 25502805
